Where two headings read alike, the source gives them in different places. Where a SMILES comes first, the peptide text is derived from it. Bridges are numbered along the chain shown (N, C = ends). [ ]: non-standard residue; d: D form. The star is where a group is joined. AMBHA = 6-(4-(aminomethyl)benzamido)hexanoic acid linker, NCc1ccc(C(=O)NCCCCCC(=O)*)cc1; DOTA = O=C(O)CN1CCN(CC(=O)O)CCN(CC(=O)*)CCN(CC(=O)O)CC1; NOTA = O=C(O)CN1CCN(CC(=O)O)CCN(CC(=O)*)CC1; 2Nal = N[C@@H](Cc1ccc2ccccc2c1)C(=O)O; Fmoc = O=C(OCC1c2ccccc2-c2ccccc21)*; Pen = CC(C)(S)[C@H](N)C(=O)O; 4Amb = NCc1ccc(C(=O)O)cc1; Ahx = NCCCCCC(=O)O
Key:
[1] = molecular target: T1, CXCR4 (Homo sapiens, UniProt P61073); details: competitive binding assay using anti-CXCR4 mAb 12G5; read-out: CXCR4 affinity IC50; cited from earlier work
[2] = test system: CHO-hCXCR4 tumor; design: species or system mice; details: mouse, in vivo
Protocol: Female athymic nude mice (6 weeks old from Envigo Laboratories, Indianapolis, Ind., USA) were subcutaneously (s.c.) injected with 10^7 CHO (right flank) and CHO-hCXCR4 (left flank) or CHO-hCXCR4 cells alone (right flank). Once tumors became palpable (100=^3 [volume=0.5×long diameter×(short diameter)^2]), approximately 15-21 days post injection (p.i.), the animals were used for the experiments. 10-15 MBq of the respective ^68Ga-labeled peptide in 100 μL of PBS were injected into the tail vein of nude mice bearing CHO-hCXCR4 tumor (groups of n=3-5). For competition studies, 8 mg/kg of unlabeled […], were co-injected with the radioligands. At 45 min p.i., blood was collected from the retro-orbital plexus (100 μl) and mice were sacrificed and the tissues and organs of interest were dissected, weighed, and counted for radioactivity in a γ-counter. Biodistribution data are given as percent injected dose per gram tissue, % ID/g (means±SD). The biodistribution of [^68Ga]DOTA-AMBHA-R54 and [^68Ga]NOTA-AMBHA-R54 was investigated in CHO-hCXCR4 bearing […] mice (45 min p.i.). […] Data are given in % ID/g and are means±SD.

[3] = in vivo; design: species or system mice; details: female, athymic nude, mouse, iv, total radioactivity
Description: (§1) Female athymic nude mice (6 weeks old from Envigo Laboratories, Indianapolis, Ind., USA) were subcutaneously (s.c.) injected with 10^7 CHO (right flank) and CHO-hCXCR4 (left flank) or CHO-hCXCR4 cells alone (right flank). Once tumors became palpable (100=^3 [volume=0.5×long diameter×(short diameter)^2]), approximately 15-21 days post injection (p.i.), the animals were used for the experiments. Tumor-bearing CHO/CHO-hCXCR4 mice were i.v. injected with 10-15 MBq of the respective radiotracer in 100 μL of PBS. At 45 min p.i., mice were anaesthetized with Avertin and images were acquired using a Discovery 600 PET/TC scanner (GE healthcare) in 3D mode with measured attenuation correction (1 bed position, 6 min scanning time). Data were decay-corrected to the time of tracer injection. The reconstructed images including PET, CT and fused PET/TC images, were generated on the advantage workstation version (AW4.6 software, GE healthcare). Tissue activity (e.g. tumor, lung, liver, kidney) was quantified considering the volume of a region of interest (ROI) to determine maximum standardized uptake values (SUVmax). Non-specific tracer accumulation was investigated by co-injection of 8 mg/kg unlabeled peptide […]. CHO and CHO-hCXCR4 tumors were microscopically analyzed (H&E) and CXCR4 expression was evaluated through immunohistochemistry (IHC) (mab172, clone 44716, diluition 1:[…]&D system). The percentage of positive cells was evaluated in at least 5 areas (HPF 200× magnification) (Zeiss AxioScope light microscope). Statistical analysis was performed using the MedCalc 9.3.7.0 and Excel software. Unpaired Student t test was used for statistical analysis of ex vivo biodistribution and PET/TC images. The Spearman's correlation was used to measure the degree of association between SUV(max) and % CXCR4 IHC staining.

[4] = test system: CHO-hCXCR4 xenografts; assay: in vivo; design: species or system mice; details: mouse; for tumor accumulation upon co-injection of unlabeled competitor (R54): 8 mg/kg
Description: as §1

[5] = molecular target: T1, CXCR4; assay: competitive binding with [^125I]CXCL12 as radioligand on CXCR4-expressing CCRF-CEM cells; design: using CXCR4-expressing CCRF-CEM cells, human T lymphoblastic leukemia cells CXCR4 expressing; endogenous in cells; host or cells: CCRF-CEM (human T-cell leukemia), whole cells; details: [^125I]CXCL12 radioligand, means ±SD, read-out: hCXCR4 binding affinity IC50
Protocol: Specifically, according to the present invention, DOTA and NOTA-AMBHA-R54 were synthesized by combining solid and solution-phase peptide synthesis. Binding affinities (IC50) were determined using CXCR4-expressing CCRF-CEM cells, human T lymphoblastic leukemia cells CXCR4 expressing, with [^125I]CXCL12 as radioligand. Chinese hamster ovary (CHO) and CHO cells transduced with human CXCR4 (CHO-hCXCR4) grown in complete medium supplemented with 1 mg/mL G418 (a kind gift of Dr. David McDermott (NIAID, NIH, Bethesda, Md.).
Binding affinities to hCXCR4 were assessed with CCRF-CEM cells (1·10^6 cells/sample) in binding buffer (PBS containing 50 mM HEPES, 1 mM CaCl2, 5 mM MgCl2, 0.5% BSA, and 0.3 mM NaN3) and [^125I]CXCL12 (Perkin-Elmer, 2200 Ci/mmol) as radioligand. Cells were incubated with 100.000 cpm of the respective radioligand (approx. 0.1 nM) plus increasing concentrations (10^−11 to 10^−5 M) of the respective peptide of interest (n=3 per concentration, total sample volume 250 μL). After incubation at 4° C. for 60 min (CCRF-CEM cells) at room temperature (RT), samples were centrifuged (5 min, 450 g, Megafuge 1.0, Heraeus Thermo Scientific), the supernatant was carefully removed and pooled with the supernatants of two subsequently performed washing steps. […]

[6] = molecular target: T2, human CXCR4 (chemokine receptor 4) on CCRF-CEM cells (human, UniProt P61073 1-352); assay: displacement of [125I]CXCL12 from CXCR4-expressing CCRF-CEM cells, gamma counting
T2 construct: whole, on cells; also called hCXCR4
Protocol: Cells were incubated with 100.000 cpm of the respective radioligand (approx. 0.1 nM) plus increasing concentrations (10⁻¹¹ to 10⁻⁵ M) of the respective peptide of interest (n=3 per concentration, total sample volume 250 μL). After incubation at 4° C. for 60 min (CCRF-CEM cells) at room temperature (RT), samples were centrifuged (5 min, 450 g, Megafuge 1.0, Heraeus Thermo Scientific), the supernatant was carefully removed and pooled with the supernatants of two subsequently performed washing steps. Then, the amount of free (pooled supernatants) and bound radioligand (cell pellet) was quantified using a γ-counter and expressed in percent of total added activity. The half maximal inhibitory concentration (IC₅₀) values were calculated using GraphPad Prism software (GraphPad Software, Inc., California).
To assess the influence of modifications and chelator conjugation on R54, the CXCR4 affinity of Fmoc-AMBHA-R54 (see above the structure), NOTA-AMBHA-R54 and DOTA-AMBHA-R54 peptides as well as unmodified R54 were tested in competitive binding with [¹²⁵I]CXCL12 as radioligand on CXCR4-expressing CCRF-CEM cells. Each experiment was performed in triplicate, and results are means ±SD from a minimum of three separate experiments.

T1 sequence (P61073 whole entry): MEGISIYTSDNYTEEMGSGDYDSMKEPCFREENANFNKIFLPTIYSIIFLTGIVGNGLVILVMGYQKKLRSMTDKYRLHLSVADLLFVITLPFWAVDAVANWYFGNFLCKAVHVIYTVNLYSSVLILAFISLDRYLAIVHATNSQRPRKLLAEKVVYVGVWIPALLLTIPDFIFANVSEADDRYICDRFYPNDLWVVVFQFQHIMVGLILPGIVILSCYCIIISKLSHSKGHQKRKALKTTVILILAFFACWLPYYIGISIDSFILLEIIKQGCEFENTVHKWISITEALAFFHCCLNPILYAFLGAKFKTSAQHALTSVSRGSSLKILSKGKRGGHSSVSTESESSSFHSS
T2 sequence (P61073 whole entry): as above

For `CC(=O)N[C@@H](CCCNC(=N)N)C(=O)N[C@@H](C)C(=O)N[C@@H]1CSSC(C)(C)[C@@H](C(=O)O)NC(=O)[C@H](Cc2cnc[nH]2)NC(=O)[C@H](Cc2ccc3ccccc3c2)NC(=O)[C@H](CCCNC(=N)N)NC1=O` [Peptide R54, Ac-Arg-Ala-[DCys-Arg-Nal(2′)-His-Pen]COOH] (Ac-RA[dC]R[2Nal]H[Pen]-OH; disulfide 3-7), the IC50 [1] is given as 1.5 ± 0.5 nM.

With `C[C@H](NC(=O)[C@H](CCCNC(=N)N)NC(=O)CCCCCNC(=O)c1ccc(CNC(=O)CN2CCN(CC(=O)O)CCN(CC(=O)O)CCN(CC(=O)O)CC2)cc1)C(=O)N[C@@H]1CSSC(C)(C)[C@@H](C(=O)O)NC(=O)[C@H](Cc2c[nH]cn2)NC(=O)[C@H](Cc2ccc3ccccc3c2)NC(=O)[C@H](CCCNC(=N)N)NC1=O` [[^68Ga]DOTA-AMBHA-R54, metal not drawn] ({DOTA-4Amb-Ahx}-RA[dC]R[2Nal]H[Pen]-OH; disulfide 3-7) the tumor/non-tumor ratios [2] was “high tumor/non-tumor ratios”, the SUV at 0.75 h [3] was 2.02 ± 0.14 SUV and the “maximum standardized uptake value (SUVmax)” value [4] was 2.02 ± 0.14 g/mL. The “tumor accumulation upon co-injection of unlabeled competitor (R54)” value [4] was “reduced to background levels”.

For `C[C@H](NC(=O)[C@H](CCCNC(=N)N)NC(=O)CCCCCNC(=O)c1ccc(CNC(=O)CN2CCN(CC(=O)O)CCN(CC(=O)O)CC2)cc1)C(=O)N[C@@H]1CSSC(C)(C)[C@@H](C(=O)O)NC(=O)[C@H](Cc2c[nH]cn2)NC(=O)[C@H](Cc2ccc3ccccc3c2)NC(=O)[C@H](CCCNC(=N)N)NC1=O` [[^68Ga]NOTA-AMBHA-R54, metal not drawn] ({NOTA-4Amb-Ahx}-RA[dC]R[2Nal]H[Pen]-OH; disulfide 3-7), the excretion route [2] was “exclusive renal excretion”, the tumor/non-tumor ratios [2] was “high tumor/non-tumor ratios” and the SUV at 0.75 h [3] was 19.6 ± 2 SUV. For the same molecule, the “maximum standardized uptake value (SUVmax)” value [4] was 19.6 ± 2.00 g/mL and the “tumor accumulation upon co-injection of unlabeled competitor (R54)” value [4] was “reduced to background levels”.

Molecule `CC(=O)N[C@@H](CCCNC(=N)N)C(=O)N[C@@H](C)C(=O)N[C@@H]1CSSC(C)(C)[C@@H](C(=O)O)NC(=O)[C@H](Cc2c[nH]cn2)NC(=O)[C@H](Cc2ccc3ccccc3c2)NC(=O)[C@H](CCCNC(=N)N)NC1=O` [Peptide R54, Ac-Arg-Ala-[DCys-Arg-Nal(2′)-His-Pen]COOH] (Ac-RA[dC]R[2Nal]H[Pen]-OH; disulfide 3-7) has an IC50 [5] of 20 ± 2 nM.

{NOTA-AMBHA}-RA[dC]R[2Nal]H[Pen]-OH (disulfide 3-7, also called NOTA-Ahx-R54; NOTA-R54) [NOTA-AMBHA-R54] showed an IC50 [6] of 36 nM.

In the case of {DOTA-AMBHA}-RA[dC]R[2Nal]H[Pen]-OH (disulfide 3-7, also called DOTA-Ahx-R54; DOTA-R54) [DOTA-AMBHA-R54], the IC50 [6] is reported as 107 nM.

{Fmoc-AMBHA}-RA[dC]R[2Nal]H[Pen]-OH (disulfide 3-7) [Fmoc-AMBHA-R54] showed an IC50 [6] of 38.5 nM.
